Test results: patent US20120121587A1 (Chugai, published 2012)
Where two headings read alike, the source gives them in different places.

T1: Human recombinant AXL-FND1 (GST-FND1), from pET-41b(+) (human, UniProt P30530 225-331)
T1 construct: Expressed in E. coli, purified on Glutathione Sepharose; analyte in all Biacore measurements; GST put first by the usual layout of pET-41; not shown: GST-tag of vector pET-41b(+) (Novagen)
T1 sequence (looked up): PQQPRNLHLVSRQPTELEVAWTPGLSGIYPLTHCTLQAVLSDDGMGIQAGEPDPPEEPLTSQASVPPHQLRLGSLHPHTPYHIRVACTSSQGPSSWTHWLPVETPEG


Columns and labels:
Assay in all cases: SPR (Biacore T100): antibody captured on Protein A, GST-FND1 as analyte
[1] = target: T1, Human recombinant AXL-FND1 (GST-FND1), …
Experimental: (§1) Kinetic analyses of antigen-antibody reactions of humanized AXL antibodies were carried out using Biacore T100 (BIACORE). rec-Protein A (Zymed) (hereinafter, Protein A) was immobilized onto a sensor chip, various antibodies were bound to it, then an antigen as the analyte was flushed to measure the antibody-antigen interaction. Human recombinant AXL-FND1 (prepared in 2-2; hereinafter referred to as GST-FND1) prepared at various concentrations was used as the antigen. From the sensorgrams obtained through the measurements, kinetic parameters, namely binding rate constant kₐ (1/Ms) and dissociation rate constant kd (1/s), were calculated, and Kd (M) was calculated based on these values. Biacore T100 Evaluation Software (BIACORE) was used to calculate each of the parameters.
(§2) The sensor chips were produced by immobilizing approximately 3000 RU of Protein A onto CM5 (BIACORE) by amine coupling. Using the produced sensor chip, kinetic analyses were carried out on the interaction between the Protein A-bound antibodies and GST-FND1. HBS-EP+ was used as the running buffer, and the flow rate was set to 30 μL/min. Each antibody was prepared at 1 μg/mL using the running buffer, and was subjected to binding with Protein A for two minutes. GST-FND1 as the analyte was prepared at 0.5 and 2.0 μg/mL using HBS-EP+. […]

[2] = target: T1, Human recombinant AXL-FND1 (GST-FND1), …; remark: listed apart in the source
Experimental: as §1, §2

[3] = target: T1, Human recombinant AXL-FND1 (GST-FND1), …; remark: listed apart in the source
Procedure, shortened: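 Antibodies (1 μg/mL) were captured for 2 min on a Protein A CM5 chip. GST-FND1 (0.5 and 2.0 μg/mL) in HBS-EP+ was flowed at 30 μL/min with 2 min association and 2 min dissociation at 25° C. ka and kd were fitted from sensorgrams and Kd was calculated from them.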

[4] = target: T1, Human recombinant AXL-FND1 (GST-FND1), …; remark: listed apart in the source
Experimental: as §1
The sensor chips were produced by immobilizing approximately 3000 RU of Protein A onto CM5 (BIACORE) by amine coupling. Using the produced sensor chip, kinetic analyses were carried out on the interaction between the Protein A-bound antibodies and GST-FND1. HBS-EP+ was used as the running buffer, and the flow rate was set to 30 μL/min. Each antibody was prepared at 1 μg/mL using the running buffer, and was subjected to binding with Protein A for two minutes. GST-FND1 as the analyte was prepared at 0.5 and 2.0 μg/mL using HBS-EP+. Measurements were carried out by first binding the various humanized AXL antibodies, chimeric AXL antibodies, or mouse AXL antibodies of interest to Protein A, then applying an analyte solution to them for a two-minute interaction, and then switching to HBS-EP+ (BIACORE) for a two-minute measurement of the dissociation phase. After completion of measurement of the dissociation phase, 30 μL of 10 mM glycine-HCl (pH 2.0) was used for washing to regenerate the sensor chip. Such binding, dissociation, and regeneration were defined as one cycle of analysis. All experiments were performed at 25° C.
Affinity measurements on the produced variants were carried out by the method of Example 2.

Row | Kd [1] | Kd [2] | Kd [4] | further results | Binder
1 | 1.59 nM |  |  |  | chH/L0 (antibody, V domains shown, not shown: a dimerising Fc or GST, Chimeric H chain with humanized L chain) VH: QVQLKQSGPGLVAPSQSLSITCTVSGLSLTSFGVDWVRQSPGKGLEWLGVIWGGGSTNYNSALKSRLSISKDNSKSQVFLKMNSLQTDDTAMYYCAGEGSKYGAWFAYWGQGTLVTVSA VL: DVVMTQSPLSLPVTLGQPASISCRSSQNIVHTNGNTYLEWYQQKPGKAPELLIYKVSNRFSGVPDRFSGSGSGTDFTLKISRVEAEDVGVYYCFQGSHIPFTFGQGTKLEIKR
2 | 12.3 nM |  |  |  | H6/L0 (antibody, V domains shown, not shown: a dimerising Fc or GST, H6 is chH with arginine for glycine at Kabat position 94) VH: QVQLKQSGPGLVAPSQSLSITCTVSGLSLTSFGVDWVRQSPGKGLEWLGVIWGGGSTNYNSALKSRLSISKDNSKSQVFLKMNSLQTDDTAMYYCAREGSKYGAWFAYWGQGTLVTVSA VL: DVVMTQSPLSLPVTLGQPASISCRSSQNIVHTNGNTYLEWYQQKPGKAPELLIYKVSNRFSGVPDRFSGSGSGTDFTLKISRVEAEDVGVYYCFQGSHIPFTFGQGTKLEIKR
3 |  | 4.44 nM |  |  | H0/L0 (antibody, human IgG1, kappa, V domains shown, Humanized Ax225; IgG1 constant region without G446 and K447 (EU), natural human kappa) VH: QVTLKESGPVLVKPTETLTLTCTVSGFSLSSFGVDWVRQAPGKGLEWMGVIWGGGSTNYNSALKSRLTISKDTSKSQVVLTMTNMDPVDTATYYCAGEGSKYGAWFAYWGQGTLVTVSS VL: DVVMTQSPLSLPVTLGQPASISCRSSQNIVHTNGNTYLEWYQQKPGKAPELLIYKVSNRFSGVPDRFSGSGSGTDFTLKISRVEAEDVGVYYCFQGSHIPFTFGQGTKLEIKR
4 |  | 3.58 nM | 3.58 nM | Kd [3]: 3.58 nM | H9/L0 (antibody, human IgG1, kappa, also called humanized Ax225 antibody (H9/L0)) heavy: not shown light: DVVMTQSPLSLPVTLGQPASISCRSSQNIVHTNGNTYLEWYQQKPGKAPELLIYKVSNRFSGVPDRFSGSGSGTDFTLKISRVEAEDVGVYYCFQGSHIPFTFGQGTKLEIKRTVAAPSVFIFPPSDEQLKSGTASVVCLLNNFYPREAKVQWKVDNALQSGNSQESVTEQDSKDSTYSLSSTLTLSKADYEKHKVYACEVTHQGLSSPVTKSFNRGEC
5 |  |  | 3.81 nM |  | H32/L21 (antibody, human IgG1, kappa, V domains shown) VH: QVTLKESGPVLVKPTETLTLTCTVSGFSLSSFGVDWVRQAPGKGLEWMGVIWGGGSTNYNEALQDRLTISKDNSKSQVVLTMTNMDPVDTATYYCAGEGSKYGAWFAYWGEGTLVTVSS VL: DVVMTQSPLSLPVTLGQPASISCQSSQNIVHTNANTYLEWYQQKPGKAPELLIYKVSNRFSGVPDRFSGSGSGTDFTLKISRVEAEDVGVYYCFQGSHIPFTFGQGTKVEIER
6 |  |  | 2.59 nM |  | H36/L36 (antibody, human IgG1, kappa, V domains shown) VH: QVTLKESGPVLVKPTETLTLTCTVSGFSLSSFGVDWVRQARGQRLEWMGVIWGGGSTNYNSALKSRLTISKDNSKSQVVLTMTNMDPVDTATYYCAGEGSKYGAWFAYWGQGTLVTVSS VL: DVVMTQSPLSLPVTLGQPASISCRSSQNIVHTNANTYLEWYQQKPGKAPELLIYKVSNRFSGVPDRFSGSGSGTDFTLKISRVEAEDVGVYYCFQGSHIPFTFGQGTKLEIKR
